This note sets out measurements from PMC4131202 (Current biology : CB, 2013).

This assay has as its target muscle actin filaments (UniProt P68135 1-377). The assay can be described thus: co-sedimentation.

B1: GST-Pan1(1633-1794), C-terminal fragment of fission yeast Pan1p including the A, PP and W domains (domain or fragment)
chain: PPAPSPLQPSGHDSDNWSQHGDEEEEDSEDDIRSSKDAAALAAKLFGGMAPAHPVSTPPVRPQSAAPPQMSAPTPPPPPMSVPPPPSAPPMPAGPPSAPPPPLPASSAPSVPNPGDRSALLQQIHTGTRLKKTVTTDKSKPIAGRVLDASDGNSSAWYGNLS
Usually Kd stands for the free concentration of one partner at which half of the binding sites on the other are occupied at equilibrium, for simple one-to-one binding. B1 yielded a Kd of 2.9 µM.
